According to the DeepSol protein solubility set:

Experiment: soluble on expression in E. coli; label from the status in PepcDB or PDB records

VIESMSDGYIVVDTSNSIVDVNRAVLELAGKTRKEVLGKNLTYLFGEGVELLCHTPEGDFGREISLKSGSEIKFFTVSVSPLMARNEPEGKLIMIHDIT
soluble on expression in E. coli: not soluble

MVVLNTPGKYQYDLRNHLLVNLFPIALDAEITTSNVNKHQLHRSNIPAALSGNSGITDYVPFSAERNAAMVIWRTAIDSRPAVCNDEEGTPGTL
soluble on expression in E. coli: not soluble

AHHHHHHASAKWVCKICGYIYDEDAGDPDNGISPGTKFEELPDDWVCPICGAPKSEFEKLEDGSFLPYLSSPYPLYLINLMLMECPPDIYSFSTQNSNNQLKGLFMFKKKEYDRWMVEAKRTLASAYSDLREGYYEWASFKAQQAAELAVKAILRGLSFAPIGHSITKLLRELAENNIKGPKKILYFAMKLDRNYIALRYPDAYPEGPH
soluble on expression in E. coli: soluble

MAASKKAVLGPLVGAVDQGTSSTRFLVFNSKTAELLSHHQVEIKQEFPREGWVEQDPKEILHSVYECIEKTCEKLGQLKIDISNIKAIGVSNQRETTVVWDKITGEPLYNAVVWLDLRTQSTVESLSKRITGNNNFVKSKTGLPLSTYFSAVKLRWLLDNVRKVQKAVEEKRALFGTIDSWLIWSLTGGVNGGVHCTDVTNASRTMLFNIHSLEWDKQLCEFFGIPMEILPNVRSSSEIYGLMKISHSVKAGALEGVPISGCLGDQSAALVGQMCFQIGQAKNTYGTGCFLLCNTGHKCVFSDHGLLTTVAYKLGRDKPVYYALEGSVAIAGAVIRWLRDNLGIIKTSEEIEKLAKEVGTSYGCYFVPAFSGLYAPYWEPSARGIICGLTQFTNKCHIAFAALEAVCFQTREILDAMNRDCGIPLSHLQVDGGMTSNKILMQLQADILYIPVVKPSMPETTALGAAMAAGAAEGVGVWSLEPEDLSAVTMERFEPQINAEESEIRYSTWKKAVMKSMGWVTTQSPESGIP
soluble on expression in E. coli: not soluble

GPGSMPVEREVITLAFGNYSSLVAAQWANGTSHYDAHHSTLYSECRSADVLGGGSSGNGRVRVPRLLLLDAPYASAFDDIDVWARKYKDDAKIGEEGDAAYNPSEASPSPVHRGDATEEKDHLFASVVKAVQRHVFEQHGLDDDDSHGGNDDAGGADDAQNDDGEDADAHLLDEDEEDDVSKNAGRRGSATIPHSRAQRQARLKRKLFDEHNTTIPWWQYITTGLGPNSVTSVKPLQHVDAAGDLPALHSFGYGLAYLRDGGRSSEVVDLNDALRRNLEAADQLQGIQCFTDGDGLFGGAAANVLEQLWEDAGPKTPVVQACSFARLPALVADPAYRAEVAFRERRMDEVALNQLLATLHLSRHTSAVYIPVPLSDWDVLFKGAATAASPTEAPPWLQDERATAQLLAAVIDTALYGLRDGSRASGVSSQGPQWYMDEWCRVVRPAPSLRVAAAMGALPQSVSASSELWEFLQANPLLPDAPQLDERMVRANDSAEDDASSGQARQQAKFFPLTHTMSTYSTAHTAGQVLGHVASLRGAGCLPATVYPAREAMLRYALPLRTSTYLPLVTEVSYPISDTFPTELLFADPAAMAKVPGGASGSGGSEGITSLRRVLQSVDVGAHVLSTYATAPMLHDISTKAQAALRNKMDRYCDAYVMEKDDWREALDEGLALFDDYNHAPLSDAQDGGGSDGDDY
soluble on expression in E. coli: not soluble

MRSGKIFHHFDQWGIIIRKDMLKQLALFIALFGAVTAWNRQNHFGNPCYLCSCFTVYTDRDVAVPLRPYAMAIDGYDTTEDRCLATCQRDQRCRAAVYGMVGGRSVFTCEFYEKFNTKSVPVYTTYVNMYMKRSSECKLPIAHLSSIEMIPADNSSLKRRAKLEKLIGRKNPFLG
soluble on expression in E. coli: not soluble

MPSYKLTYFFFRGLGEPIRLLFHLAGVQFEEVRMNPDQTWLDIKDSTPMKQLPVLNIDGFELPQSGAILRYLARKFGFAGKTPEEEAWVDAVHDLFKDFLAEFKKFAAERRSGKSAEEVEKFRSEFFLPARNTYFNILNGLLEKSNSGFLIGSDITFADLVVVDNLLTLKNYGLFDESEFTKLAALREKVNSYPGIKEYIAKRPVTEY
soluble on expression in E. coli: soluble

MSLQTIEEMDAYPAVDDSGDHLLDPNMIPTAATEVVMSGDGIERQFGDEEDTYQYEYTYEDDPQLEIGEEEVVVTDEAEYQEHWKDEEK
soluble on expression in E. coli: not soluble

MGSDKIHHHHHHMIPKNIHLIFLRKDEPFPELFEKCKQEIQVNHPDWNIRLYNKDDAQDILNQDLPEYIEAYNAFYHNVQKADFLRLALVYLYGGFYMDLDMLSLKPLDELRKYNLVLGEEKIVCQAEQEALNLRYRLRIANYMFGGIPKHPFLHRIMDEMAERATIILKSQQEILDITGPGLLTDTYWDNYGMYTDITLLRNTDKRCRQPYHNEISCHFGDYAAHLHAGTWRTGI
soluble on expression in E. coli: not soluble

MSGFIPGSTTGSMLTAISDTHGTDNHRLTGRTLDAVREADHVLHAGDFMTEQVLDAIDAESDELTGVVGNNDRPAVRARLSDVATVSWEELTIVVVHGHEHTETALGMLARQENADIVVVGHSHKPVLTDFGGWTLVNPGSYADPRRYQPAHAELDVMAGDVRVRLRSPDGTPISTTIVERLEHHHHHH
soluble on expression in E. coli: not soluble

SATPLDNCLRPFPDPMVKVTAETKKISEVSSYVSANNKKNSFWGSGLLYPVALLRCQDCWAGHQTHVLSKEFTSYFSSGAGREAQHQPSAVLGSLIWLRRVYLLRAMVVHGGSQPCQRWLVIRMEVGGHPSFPGHAWLTFHLN
soluble on expression in E. coli: soluble

MGSDKIHHHHHHMLHATAWRSALFTPTENSATSRDRADCGGIGGMSAAILLSRQGIQVDLVELNPLWAPGGAGITISGPTLRGLREVGVADEVLASGGFWNAVDVCDANSNLTVTVPIAPAVGADELPGVAGIMRTTLAEILGRATRKADTNARLGVTFETLTQDAEGVEVSFNDGSRARYDLVIGADGINSPVRKYVKPEFPGPPFTGQRSWRAVVPRLQENSLMYMGKTTKAGLNPISQTECYLFVLDKREGMDFIAPEQWPMMLAELLEEFGGAVGEFRRGPLDGSLMNHRLLYRPLAGHMINGPWHKGRIVLLGDAVHATTPHLASRAGIAVEGAIVLSEELARRRSLEGAFIAYAGRHYDRARLVVSASGRLGEIERESGSREEHTRIMIETQQALRAPI
soluble on expression in E. coli: not soluble

MGGSHHHHHHGMASSSNVPADMINLRLILVSGKTKEFLFSPNDSASDIAKHVYDNWPMDWEEEQVSSPNILRLIYQGRFLHGNVTLGALKLPFGKTTVMHLVARETLPEPNSQGQRNREKTGESNCCVIL
soluble on expression in E. coli: not soluble

MGSDKIHHHHHHMPIKSRAVVIPKRNTIEIRTVQVNEPKAGDVLIKTAFTSISAGTERMLLDGRLPQPQLLFPVVPGYETVGQVVQVGSKAPKELLGQWVYIGGARCFRGVNAAWGGQSEYITAEHERVVPLGSLDPATGVLLALAATALHGIKIGQIRRSDRVLVLGQGIVGQLAARLAKYAGAQHVAVADRVAVRLQASQADQVIDVTRESLDEAIGEAKVDVLIEATGSMGALSGALPLLANHGRVVLLGYYDHINIPYAPVFMREAQILVAREWEFGPDGDLPRVRDLLANGDLKVDGLLTHHVPLDRIQAAYRLAPGRPGLFEGCCHVAAKRYRRSVVLTRQGAMRISLEREMALCPPIQKRNNQVQQHECSPSTAKAAWENHSSPPIW
soluble on expression in E. coli: not soluble

MGHHHHHHSHMLACCAIYSPVRCAFPYTETERRFTCKRRIFRIILTLCGRENMKIRALLVAMSVATVLTGCQNMDSNGLLSSGAEAFQAYSLSDAQVKTLSDQACQEMDSKATIAPANSEYAKRLTTIANALGNNINGQPVNYKVYMAKDVNAFAMANGCIRVYSGLMDMMTDNEVEAVIGHEMGHVALGHVKKGMQVALGTNAVRVAAASAGGIVGSLSQSQLGNLGEKLVNSQFSQRQEAEADDYSYDLLRQRGISPAGLATSFEKLAKLEEGRQSSMFDDHPASAERAQHIRDRMSADGIK
soluble on expression in E. coli: not soluble

MGSDKIHHHHHHMSETEPTSEQPHIAITGGAGYIGSRVIYELQQAHPDWEITAIDNFYLGTVQSVGDVDIEHVDIRNRDRLEAALDGADVVMHLAAVSGVDDCEEKQDLAYEVNVQGTDNVAWFCRKTGAALIFPFSMAVIGDPQEFPITVDHPRDPLNWYGRTKLLNERDVETYADGAFPAHQFMISNLYGSHEIDGQTVSKGTVINFFVNRALAGETLTVYEPGTQSRNFIHVKDVARAYVDSCERLLEQLDRGETGVEKYEIASDEDPSVHTVAKLVRDIAADIADIDADVELVENPRGDDETLVDSFTVDTGRTTAALGWTPEHDVESAIRTALESANT
soluble on expression in E. coli: not soluble

MTAYLNALGVICALGDSREEVARRLFAGDSSGMVVESGWVPERALPVGAVKGALPAMPPAMRSQHSRNNQLLLAAALQIKDEIGQAIEQYGAGRIGVIIGTSTSGIDEASSSMASWLRDQTFPADYDYRQQELGAPANFLATWLQLSGPAYVISTACTSSARALLSARRALDMGLCDAVLCGGVDSLCKLTLNGFSALEAMSPQLCNPFSLNRNGINIGEAAALFLMTREAGSTHSIALLGAGANCDAHHISAPEPSGRGARDAMLQALSNARLEAAQISYLNLHGTATQLNDAMESLAVQAVFPEGVPCSSTKSLSGHTLGAAGALEIAFCWLSLVPHNTEHALPPQVWDGAADPLLPALHWTVPGARLAAADTRYMMSNSFAFGGNNISLIIGDAP
soluble on expression in E. coli: not soluble

MGSDKIHHHHHHMEKLEKTVDMNIQQMINLSVLELVKLGLKYGIFKAVSKKISYIDLLNQVDVPNKPLLKKLIDHLKLLGIIEETPTHLLLNSFSYEIRFPKEEHMYLLPDWIPSFEEIYRMVDFALITPNHPHVLMDFDKDADFWDLRLSSTFHEAYRILIAKLGEIGEGSRVLDIGCGSASPAYFGKLVGEEGEYVGVDYSPALLEIAKNRTEGLPVKLKEMDASLIKPKNKYDVAIMSFVLEYIENRRSALRNALDSLESGGKLIIVDAFKDEFRNVEALEFFEGLNSAFREYPSKKYIKEVILDEGFEVKFGDYGKAILLIEKL
soluble on expression in E. coli: not soluble

IVVLHGLYMHGLVMKPLASRLRRKGHSVQVVSYNSVRINEALLFKRIRNCLSETEKNVIVGHSLGGILAVHFVNSHNDKHTPIDSIVTIGSPLQGASIAKEIQNRKLGFILGNSKEQGLVDVNQLTVDCPIGSIAGTLPIGIRSSIIRDRVPSDGTVTVEETVLPELKDHLCLNYSHTSLIYAKQTVEQIDYFIHHHEFKRV
soluble on expression in E. coli: not soluble

MGSDKIHHHHHHMMNDRDERWDRIAGKLDTLLDRFDRFLDGHIPPPPPDGRLFERHLAFRWRRTGEGGAFLPVEHPHLPDLDDLMGIDLVRDELVRNTGQFVVGYPANNVLLWGERGTGKSTCVKGLLRRFSEEGLRLVEVLRDDLCTLPAIIAPLRKMPQRFILFCDDLSFGEGEGGYRELKVLLEGGIEERPSNILFYATSNRRHLLPERMEDNLGGEIHPEEAVSEKLSLADRFGLNLSFYSFDQDTYLAIVARYAEKFSLPMGGEALRREALQWAIFKGSRSGRSARQFVDDLAGRLRVALPAEK
soluble on expression in E. coli: not soluble

MGSDKIHHHHHHAVTSCLDTEEIEYSPDATIHAFALDTIHGVNYKFTIDQLGPDGVGLIYNQDSLPVGSDTIIDRILIKTLTTTSGIITAKNAEGQDTLFNYSDSIDFRGTMQKPMRIKVWAADMQYTKEYTISVRVHQQDPDSMNWTKMTDNFANYSGYQKSVTLNEDLLIYTSNTTAYQSSGDVISKGRSWTPVSITGLPDNIKLSSIISFGGKLYATNGESAYVSSDGALWNVATDLNKNGKVEMLIAPFPKNEGNLLGISGIAGIINNGDQSTFAITNPEATAWNIGSETVGADFPLENLSATSYLTATGIQTIAVMGNNRNANDTTSIAWTSQDGLLWIPLKTSSSTAYCPKLDNPSFFYYDNAFLAFGGNFETIYTSEAGIAWYKANKKIFLPAEFKDRGNNYSTVVDKNNFIWVIWSNGGANEVWRGRINKFGFKRQNNN
soluble on expression in E. coli: not soluble
